The text below walks through data of publication PMC11558822, “Myc 9aaTAD activation domain binds to mediator of transcription with superior high affinity” (Molecular Medicine, 2024).

No end group written: not given here. *: point of attachment. Biotin = O=C1N[C@H]2[C@H](CS[C@H]2CCCCC(=O)*)N1

Test [1] deals with T1, KIX domain of CBP coactivator (region 586-672) (UniProt P45481 586-672).
T1 construct: GST-His6x tag removed by TEV protease; also called KIX protein; source: expressed as GST-His6x-TEV-KIX from pGEX-2T, purified (His trap Ni column, TEV cleavage, second His trap, HiLoad S30); not shown: GST, N-terminal, cleaved; His6, N-terminal, cleaved
T1 sequence (P45481 other isoform, or with tags, fused parts or gaps): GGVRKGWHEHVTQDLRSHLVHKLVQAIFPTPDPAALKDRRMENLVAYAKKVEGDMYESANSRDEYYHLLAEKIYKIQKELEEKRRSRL
The test is described as follows: BLI; biotinylated peptide immobilised on streptavidin SA biosensors (Octet RED96e); KIX domain in solution at 0.31, 0.63, 1.25, 2.5 and 5.0 uM; 30 C, 1000 rpm; 20 mM sodium phosphate pH 6.0, 50 mM NaCl; blank-subtracted, 1:1 model, steady-state analysis; apparent KD, average of pentaplicate. To be noted: both partners purified. A general note: BLI is a label-free optical method that tracks binding on a fibre tip over time.

Test [2] addresses T1, KIX domain of CBP coactivator (region …). As to the kind of experiment: BLI; biotinylated Sp1 or Sp1-Ac peptide immobilised, KIX in solution in the 3-16 uM range; steady-state analysis, 1:1 model; apparent KD. To be noted: both partners purified.

B1: MLL 9aaTAD peptide (Biotin-GS-NILPSDIMDFVLKNT) (peptide)
peptide: Biotin-GSNILPSDIMDFVLKNT
notes: linker between biotin and the MLL stretch; MLL stretch with its 9aaTAD; Positive control of the BLI assay; also called MLL peptide; source: synthetic peptide (Apeptide Shanghai Chutide Biotechnology), 95% purity
B1: in test [1], the Kd was 1.17 ± 0.21 µM.

B2: c-Myc 9aaTAD peptide (Biotin-GSSS-TQLEMVTELLG) (peptide)
peptide: Biotin-GSSSTQLEMVTELLG
notes: linker between biotin and the c-Myc stretch; it may belong to the linker; also called c-Myc peptide; MYC peptide; source: synthetic peptide (Apeptide Shanghai Chutide Biotechnology), 95% purity
For B2, the Kd in test [1] turned out to be 2.16 ± 1.17 µM.

B3: N-Myc 9aaTAD peptide (Biotin-GSSS-EPPSWVTEMLLEN) (peptide)
peptide: Biotin-GSSSEPPSWVTEMLLEN
notes: linker between biotin and the N-Myc stretch; human N-Myc stretch with its 9aaTAD; also called N-Myc peptide; NMY peptide; source: synthetic peptide (Apeptide Shanghai Chutide Biotechnology), 95% purity
Take B3: in test [1], the Kd is 0.88 ± 0.11 µM.

B4: Sp1-Ac peptide, acidic form of Sp1 9aaTAD (Biotin-GSS-GDVSWDTLDLDDLD) (peptide)
peptide: Biotin-GSSGDVSWDTLDLDDLD
notes: linker between biotin and the Sp1 stretch; also called #SpD; acidic modification; source: synthetic peptide (Apeptide Shanghai Chutide Biotechnology), 95% purity
Consider B4, for which the Kd in test [2] worked out at 9.77 ± 1.57 µM.
